In paper PMC9179170 (Nature, 2021):

Biological target: Hsp90α ATP-binding-deficient mutant Hsp90(D93N) (human, UniProt P07900 1-732, D93N)
Experiment: cryo-EM structure

B1: MBP–GRLBD(520–777) (F602S) (domain or fragment, UniProt P04150 520-777, looked up)
chain: IVPATLPQLTPTLVSLLEVIEPEVLYAGYDSSVPDSTWRIMTTLNMLGGRQVIAAVKWAKAIPGFRNLHLDDQMTLLQYSWMSLMAFALGWRSYRQSSANLLCFAPDLIINEQRMTLPCMYDQCKHMLYVSSELHRLQVSYEEYLCMKTLLLLSSVPKDGLKSQELFDEIRMTYIKELGKAIVKREGNSSQNWQRFYQLTKLLDSMHEVVENLLNYCFQTFLDKTMSIEFPEMLAEIITNQIPKYSNGNIKKLLFHQK
- binding result: binds
